Test results published in paper PMC11060668.
Where no end group is shown, it is not given here. [ ]: non-standard residue; d: D form. pY = N[C@@H](Cc1ccc(OP(=O)(O)O)cc1)C(=O)O

Target: T1, PTP1B (residue 1-321) (UniProt P18031)
T1 sequence: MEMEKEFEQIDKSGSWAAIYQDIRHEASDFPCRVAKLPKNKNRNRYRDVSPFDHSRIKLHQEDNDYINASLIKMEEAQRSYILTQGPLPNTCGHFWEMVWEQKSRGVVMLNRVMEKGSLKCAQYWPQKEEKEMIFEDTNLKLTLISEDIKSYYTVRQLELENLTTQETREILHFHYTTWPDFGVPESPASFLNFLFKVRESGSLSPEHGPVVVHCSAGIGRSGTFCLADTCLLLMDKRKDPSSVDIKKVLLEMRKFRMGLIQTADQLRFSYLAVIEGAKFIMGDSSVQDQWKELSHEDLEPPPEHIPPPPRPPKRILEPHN

kcat/KM of dephosphorylation of the peptide by purified PTP1B: 2.17e+06 M^−1 S^−1
Binder: ELD[pY][pY]DSHN [alpha-actinin4 derived di-phospho-tyrosine peptide ELDpYpYDSHN]
